According to patent US6465618B1, “Mitogen activated protein kinase (MAPK) kinase” (Asahi Kasei Kabushikiki Kaisha, priority 1997, dated 2002):

Molecular target: T1, JNK1 (Homo sapiens, UniProt P45983)
T1 construct: GST (N); made in house; host or cells: E. coli (GST-MKK7: E. coli DH5α co-transformed with a MEKK1 vector)
Assay: Activity of activated MKK7 on JNK1, dot hybridization with anti-activated JNK antibody
Format: biochemical
Conditions: 0.1 μM MKK7, 0.2 μM JNK1, 0.1 mM ATP, 30° C. 2 hours
Description: In order to screen an inhibitor of MKK7, a completely activated MKK7 was prepared as follows. Illustratively stated, as an activation factor for MKK7, MEKK1 which is suspected to exist in the upstream of MKK7 and activate MKK7, was used. A commercially available MEKK1 gene (manufactured and sold by Stratagene Cloning Systems, USA) was inserted into an E. coli expression vector in which the origin of replication (ori) is p15A, to thereby prepare recombinant MEKK1 vector. The whole DNA of human MKK7 was inserted into vector pGEX-4T1 (manufactured and sold by Pharmacia Biotech AB, Sweden), to thereby prepare recombinant GST-MKK7 vector. Two recombinant expression vectors prepared above were co-transformed into E. coli DH5α to thereby obtain an activated GST-MKK7, and the activated GST-MKK7 was purified from E. coli using Glutathione-Sepharose 4B column (manufactured and sold by Pharmacia Biotech AB, Sweden).
A gene encoding human JNK1 was inserted into vector pGEX-4T1, thereby preparing recombinant GST-JNK1 vector, and the prepared recombinant vector was transformed into and expressed in E. coli. GST-JNK1 was purified from the transformants using Glutathione-Sepharose 4B column (manufactured and sold by Pharmacia Biotech AB, Sweden). […]
Using the activated MKK7 and JNK1 obtained above, the activity of MKK7 was determined in the following manner. […]

T1 sequence (P45983 whole entry): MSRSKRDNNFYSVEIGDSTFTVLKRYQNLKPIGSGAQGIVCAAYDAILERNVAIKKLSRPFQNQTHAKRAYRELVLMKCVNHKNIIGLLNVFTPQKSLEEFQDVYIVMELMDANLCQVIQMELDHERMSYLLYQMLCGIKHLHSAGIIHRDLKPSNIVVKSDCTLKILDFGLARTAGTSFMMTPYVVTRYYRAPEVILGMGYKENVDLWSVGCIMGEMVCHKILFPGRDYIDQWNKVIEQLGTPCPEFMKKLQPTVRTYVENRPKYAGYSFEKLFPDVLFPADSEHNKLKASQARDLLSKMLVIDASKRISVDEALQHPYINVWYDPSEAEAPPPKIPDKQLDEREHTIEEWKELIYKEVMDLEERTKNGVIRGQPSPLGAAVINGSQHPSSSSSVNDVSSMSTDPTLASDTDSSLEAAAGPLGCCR

B1: activated MKK7: human MKK7 (SEQ ID NO: 2) as GST fusion, activated by co-expression with MEKK1 in E. coli (protein)
chain: AASSLEQKLSRLEAKLKQENREARRRIDLNLDISPQRPRPIIVITLSPAPAPSQRAALQLPLANDGGSRSPSSESSPQHPTPPARPRHMLGLPSTLFTPRSMESIEIDQKLQEIMKQTGYLTIGGQRYQAEINDLENLGEMGSGTCGQVWKMRFRKTGHVIAVKQMRRSGNKEENKRILMDLDVVLKSHDCPYIVQCFGTFITNTDVFIAMELMGTCAEKLKKRMQGPIPERILGKMTVAIVKALYYLKEKHGVIHRDVKPSNILLDERGQIKLCDFGISGRLVDSKAKTRSAGCAAYMAPERIDPPDPTKPDYDIRADVWSLGISLVELATGQFPYKNCKTDFEVLTKVLQEEPPLLPGHMGFSGDFQSFVKDCLTKDHRKRPKYNKLLEHSFIKRYETLEVDVASWFKDVMAKTESPRTSGVLSQPHLPFFR
modifications: left off: a dimerising Fc or GST
- activity of MKK7 (presence of activated JNK1): confirmed
